Assay results published in US20230241072A1, “ANTHRACYCLINE DERIVATIVES” (ALMAC DISCOVERY LIMITED, priority 2019, published 2023).
Blank lines part the entries; values can stand above or below the binder they belong to.

Biological target: ROR1 on the surface of human cancer cells (human) (UniProt Q01973)
Test: cell-based or functional assay

ROR1 targeting/2V non-targeting window, 697 cells: 1.2 fold | ROR1 targeting/2V non-targeting window, Kasumi-2 cells: 18 fold | ROR1 targeting/2V non-targeting window, MHH-ES1 cells: 1.1 fold | ROR1 targeting/2V non-targeting window, PA-1 cells: 73 fold
B1: P3A1hFc-PEG4-vc-PAB-EDA-PNU (Fc fusion, not shown: a dimerising Fc or GST)
chain: TRVDQTPRTATKETGESLTINCVLTDTSYGLYSTSWFRKNPGTTDWERMSIGGRYVESVNKGAKSFSLRIKDLTVADSATYYCKAREARHPWLRQWYDGAGTVLTVNGGGGSGGGGSGGGGS
modifications: MA-PEG4-vc-PAB-EDA-PNU159682 on Cys 239 (EU) of the Fc
IC50 (nM) 96 h, cell viability (Cell Titre Glo), 697 cells: 52 nM | IC50 (nM) 96 h, cell viability (Cell Titre Glo), Kasumi-2 cells: 3.2 nM | IC50 (nM) 96 h, cell viability (Cell Titre Glo), MHH-ES1 cells: 24 nM | IC50 (nM) 96 h, cell viability (Cell Titre Glo), PA-1 cells: 0.1 nM

B2: P3A1hFc(442)-PEG4-va-EDA-PNU (Fc fusion, not shown: a dimerising Fc or GST)
chain: B1 chain
modifications: MA-PEG4-va-EDA-PNU159682 on Cys 442 (EU) of the Fc
IC50 (nM) 96 h, cell viability (Cell Titre Glo), Kasumi-2 cells: 9.1 nM | IC50 (nM) 96 h, cell viability (Cell Titre Glo), MHH-ES1 cells: 37.5 nM | IC50 (nM) 96 h, cell viability (Cell Titre Glo), PA-1 cells: 0.025 nM

ROR1 targeting/2V non-targeting window, 697 cells: 4 fold | ROR1 targeting/2V non-targeting window, Kasumi-2 cells: 43 fold | ROR1 targeting/2V non-targeting window, MHH-ES1 cells: 8.4 fold | ROR1 targeting/2V non-targeting window, PA-1 cells: 360 fold
B3: P3A1hFc-PEG4-va-EDA-PNU (Fc fusion, not shown: a dimerising Fc or GST)
chain: B1 chain
modifications: MA-PEG4-va-EDA-PNU159682 on Cys 239 (EU) of the Fc
IC50 (nM) 96 h, cell viability (Cell Titre Glo), 697 cells: 61 nM | IC50 (nM) 96 h, cell viability (Cell Titre Glo), Kasumi-2 cells: 2.3 nM | IC50 (nM) 96 h, cell viability (Cell Titre Glo), MHH-ES1 cells: 18 nM | IC50 (nM) 96 h, cell viability (Cell Titre Glo), PA-1 cells: 0.15 nM
